Assay results published in JP2000166573A.

Biological target: 抗Fasモノクローナル抗体HFE7A (mouse anti-human Fas monoclonal antibody HFE7A, from hybridoma FERM BP-5828)
Assay: peptide (200 μg) preincubated with HFE7A (0.25 μg), then binding to WR19L12a cells by flow cytometry

| Binder | 結合阻害 (percent inhibition) [%] |
| --- | --- |
| KCRCKPNFFC [P110 (synthetic 10-residue peptide of the human Fas extracellular region)] | 60 |
| EINCTRTQNT [P100 (synthetic 10-residue peptide of the human Fas extracellular region)] | 50 |
